Data from patent publication US20180037644A1 (Pfizer, published 2018).
Numbering of substitutions follows the chain as printed.

B1: 9B3-563 (antibody, human IgG1, kappa, V domains shown)
VH: EVQLVETGGGLVQPGRSLKLSCVASGFTFSNYWMYWIRQAPGMGLEWVSSINNDGGNTYYLDSVKGRFTISRNNAENTVYLQMNSLRSEDTATYYCAKGHYYYSSYSFAYWGQGTLVTVSS
VL: DIQMTQSPSVLSASVGDRVTLSCKASHNINKHLDWYQQKVGEAPKLLIYFTNNLQTGIPSRFSGSGSGTDYTLTISSLQPEDVATYFCFQYNSGWTFGQGTKVEIKR
B2: 9B3-3 (antibody, human IgG1, kappa, V domains shown)
VH: B1 VH with Y102S, F108I, A109D
VL: B1 VL
B3: 9B3-1 (antibody, human IgG1, kappa, V domains shown)
VH: B1 VH with F108L, A109G
VL: B1 VL
B4: 9B3-5 (antibody, human IgG1, kappa, V domains shown)
VH: B1 VH with Y102S, S104T, A109G
VL: B1 VL
B5: 9B3-2B (antibody, human IgG1, kappa, V domains shown)
VH: B1 VH with A97V, Y102S, F108I, A109D
VL: B1 VL
B6: 9B3-13 (antibody, human IgG1, kappa, V domains shown)
VH: B1 VH with K98R, S104N, Y110H
VL: B1 VL
B7: 9B3-2A (antibody, human IgG1, kappa, V domains shown)
VH: B1 VH with Y102S, A109G
VL: B1 VL
B8: 9B3-7 (antibody, human IgG1, kappa, V domains shown)
VH: B1 VH with H100R
VL: B1 VL
B9: IL33-158 (antibody, human IgG1, kappa)
heavy: EVQLVESGGGLVQPGGSLRLSCAASGFTFSSYWMYWVRQAPGKGLEWVAAITPNAGEDYYPESVKGRFTISRDNAKNSLYLQMNSLRAEDTAVYYCARGHYYYTSYSLGYWGQGTLVTVSSASTKGPSVFPLAPSSKSTSGGTAALGCLVKDYFPEPVTVSWNSGALTSGVHTFPAVLQSSGLYSLSSVVTVPSSSLGTQTYICNVNHKPSNTKVDKKVEPKSCDKTHTCPPCPAPEAAGAPSVFLFPPKPKDTLMISRTPEVTCVVVDVSHEDPEVKFNWYVDGVEVHNAKTKPREEQYNSTYRVVSVLTVLHQDWLNGKEYKCKVSNKALPAPIEKTISKAKGQPREPQVYTLPPSREEMTKNQVSLTCLVKGFYPSDIAVEWESNGQPENNYKTTPPVLDSDGSFFLYSKLTVDKSRWQQGNVFSCSVMHEALHNHYTQKSLSLSPGK
light: DIQMTQSPSSLSASVGDRVTITCKASQNINKHLDWYQQKPGKAPKLLIYFTNNLQTGVPSRFSGSGSGTDFTLTISSLQPEDFATYYCFQYNQGWTFGGGTKVEIKRTVAAPSVFIFPPSDEQLKSGTASVVCLLNNFYPREAKVQWKVDNALQSGNSQESVTEQDSKDSTYSLSSTLTLSKADYEKHKVYACEVTHQGLSSPVTKSFNRGEC
B10: IL33-167 (antibody, human IgG1, kappa)
heavy: B9 heavy with A50S, E62D
light: B9 light with Q93N
B11: IL33-153 (antibody, human IgG1, kappa, V domains shown)
VH: EVQLVESGGGLVQPGGSLRLSCAASGFTFSSYWMYWVRQAPGKGLEWVASITPNAGEDYYPDSVKGRFTISRDNAKNSLYLQMNSLRAEDTAVYYCARGHYYYTSYSLGYWGQGTLVTVSS
VL: DIQMTQSPSSLSASVGDRVTITCKASQNINKHLDWYQQKPGKAPKLLIYFTNNLQTGVPSRFSGSGSGTDFTLTISSLQPEDFATYYCFQYNQGWTFGGGTKVEIKR
B12: IL33-175 (antibody, human IgG1, kappa, V domains shown)
VH: B11 VH with S50A, D58T, D62E
VL: B11 VL with Q93N
B13: IL33-171 (antibody, human IgG1, kappa, V domains shown)
VH: B11 VH with S50A
VL: B11 VL with Q93N
B14: IL33-154 (antibody, human IgG1, kappa, V domains shown)
VH: B11 VH with D62E
VL: B11 VL
B15: IL33-187 (antibody, human IgG1, kappa, V domains shown)
VH: B11 VH with S50A, D58T
VL: B11 VL
B16: IL33-157 (antibody, human IgG1, kappa, V domains shown)
VH: B11 VH with S50A
VL: B11 VL
B17: IL33-186 (antibody, human IgG1, kappa, V domains shown)
VH: B11 VH with S50A, A55G, D58T, D62E
VL: B11 VL
B18: IL33-188 (antibody, human IgG1, kappa, V domains shown)
VH: B11 VH with S50A, D58T, D62E
VL: B11 VL
B19: IL33-155 (antibody, human IgG1, kappa, V domains shown)
VH: B11 VH with S50A, A55G
VL: B11 VL
B20: IL33-168 (antibody, human IgG1, kappa, V domains shown)
VH: B11 VH with D62E
VL: B11 VL with Q93N
B21: IL33-170 (antibody, human IgG1, kappa, V domains shown)
VH: B11 VH with S50A, A55G, D62E
VL: B11 VL with Q93N
B22: IL33-169 (antibody, human IgG1, kappa, V domains shown)
VH: B11 VH with S50A, A55G
VL: B11 VL with Q93N
B23: IL33-156 (antibody, human IgG1, kappa, V domains shown)
VH: B11 VH with S50A, A55G, D62E
VL: B11 VL
B24: IL33-172 (antibody, human IgG1, kappa, V domains shown)
VH: B11 VH with S50A, D62E
VL: B11 VL with Q93N

Legend:
human IL-33 (mm2) [1] = molecular target: T1, human IL-33 (mm2) (human, UniProt O95760 112-270); test: cell-based or functional assay
T1 chain: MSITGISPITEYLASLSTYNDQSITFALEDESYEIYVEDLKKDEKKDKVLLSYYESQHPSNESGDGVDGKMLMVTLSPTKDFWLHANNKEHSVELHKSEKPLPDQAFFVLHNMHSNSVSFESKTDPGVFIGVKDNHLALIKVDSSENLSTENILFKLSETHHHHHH

human IL-33 (mm2) [2] = molecular target: T1, human IL-33 (mm2); test: BIAcore, IgG captured by anti-human Fc, 125 nM IL-33 (mm2)
Method: Binding to human and cynomolgus monkey IL-33 was measured by surface plasmon resonance using a BIAcore T200 instrument. An anti-human Fc antibody was immobilized on a CM5 chip, and anti-IL-33 antibodies were captured.

[3] = molecular target: T2, cynomolgus monkey IL-33 (cys mut) (cynomolgus monkey); test: cell-based or functional assay
T2 chain: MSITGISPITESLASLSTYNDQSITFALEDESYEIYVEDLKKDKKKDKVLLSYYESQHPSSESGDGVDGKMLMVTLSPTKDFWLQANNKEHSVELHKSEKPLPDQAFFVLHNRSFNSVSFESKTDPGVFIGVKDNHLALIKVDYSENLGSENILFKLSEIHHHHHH

human IL-33 (mm2) [4] = molecular target: T1, human IL-33 (mm2); test: cell-based or functional assay

Row | Binder | estimated IC50, HEK293 ST2 NFkB (human IL-33 (mm2) [1]) [nM] | koff (human IL-33 (mm2) [2]) [s⁻¹] | IC50, HEK293 ST2 NFkB cyno IL-33 [3] [nM] | IC50, HEK293 ST2 NFkB (human IL-33 (mm2) [4]) [nM] | IC50, PBMC mm2 (human IL-33 (mm2) [4]) [nM] | IC50, whole blood mm2 (human IL-33 (mm2) [4]) [nM]
1 | B1 | 0.177 | 0.00109 |  |  |  | 
2 | B2 | 0.048 | 0.000424 |  |  |  | 
3 | B3 | 0.039 | 0.000569 |  |  |  | 
4 | B4 | 0.106 | 0.000325 |  |  |  | 
5 | B5 | 0.048 | 0.000506 |  |  |  | 
6 | B6 | 0.175 | 0.000326 |  |  |  | 
7 | B7 | 0.056 | 0.000437 |  |  |  | 
8 | B8 | 0.069 | 0.000589 |  |  |  | 
9 | B9 |  |  | 0.125 | 0.131 | 0.004 | 0.007
10 | B10 |  |  | 0.062 | 0.049 | 0.001 | 0.008
11 | B11 |  |  | 0.122 | 0.087 |  | 0.014
12 | B12 |  |  | 0.086 | 0.059 | 0.004 | 0.006
13 | B13 |  |  | 0.216 | 0.145 |  | 0.012
14 | B14 |  |  | 0.133 | 0.188 | 0.007 | 0.01
15 | B15 |  |  | 0.282 | 0.15 |  | 0.006
16 | B16 |  |  | 0.161 | 0.118 |  | 0.016
17 | B17 |  |  | 0.144 | 0.109 |  | 0.012
18 | B18 |  |  | 0.351 | 0.147 |  | 0.017
19 | B19 |  |  | 0.239 | 0.171 |  | 0.025
20 | B20 |  |  | 0.264 | 0.109 |  | 0.014
21 | B21 |  |  | 0.218 | 0.176 |  | 0.005
22 | B22 |  |  | 0.176 | 0.071 |  | 0.009
23 | B23 |  |  | 0.087 | 0.116 | 0.004 | 0.004
24 | B24 |  |  | 0.222 | 0.201 |  | 0.012
